Laboratory results as given in US20250243290A1.
“And” between values parts separate entries of the source, which are not always exact repeats. Equal values may be shown once. Read-outs that look alike come from different tables or passages of the source.

Legend:
Assay in all cases: peptide-array ELISA [Con't]
[1] = target: CG2RL2APLRK2RPGFCQA2TREQNRI2T2RPC
[2] = target: 2…2R
[3] = target: …2SK2SPGQH
[4] = target: VPE2LSCGSR2…
[5] = target: LS2…2R
[6] = target: SKQEGCRL2APGGSGGL2…
[7] = target: LSCGSR2…2T
[8] = target: CAPEPGST2…2…
[9] = target: CSR2…2TRCAPLRK2…
[10] = target: …2TSCAPLRK2…
[11] = target: V2…
[12] = target: TREQNRI2…2R
[13] = target: CQA2TREQNRI2T2RPCAPLRK2…
[14] = target: LS2…2…
[15] = target: S2…2TREQNRIC
[16] = target: …2R
Chain of …2R (peptide, as listed by the source): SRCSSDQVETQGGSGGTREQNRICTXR

[17] = target: PE2LS2…2TREQNRIC
[18] = target: CDQVETQA2…2…
[19] = target: TETSDVV2…
[20] = target: C2…2…
[21] = target: REQNRI2…2R
[22] = target: …2GGSGGQA2TREQNRIC
[23] = target: …2TREQNRIC
[24] = target: 2…2RPGW
[25] = target: VPE2LS2…2RPGW
[26] = target: TREQNRI2…2RL
[27] = target: CLSKQEG2RL2…2RLC
[28] = target: CAPLRK2…2TREQNRI2T2RPC
[29] = target: VPE2LS2…2…2
[30] = target: VV2…
[31] = target: CAPEPGST2…2TSTSPTRC
[32] = target: SCGSR2…2
[33] = target: …2…
[34] = target: CAPLRK2…2…
[35] = target: 2…
[36] = target: SDVV2…
[37] = target: ETSDVV2…
[38] = target: …2KCAPLRK2…
[39] = target: QNRI2…2RL
[40] = target: EGCRL2…2…
[41] = target: CDQVETQA2…2TREQNRI2T2RPC
[42] = target: …2…2TSTSPTRC
[43] = target: ALSKQEG2…2APGTFSN
[44] = target: …2KP2…2…
[45] = target: …2SK2SPGQ
[46] = target: …2TSTSPTRC
Chain of …2TSTSPTRC (peptide, as listed by the source): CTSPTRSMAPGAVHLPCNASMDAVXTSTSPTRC

[47] = target: …2RLCQA2TREQNRI2T2RPC
[48] = target: CGSR2…
Chain of CGSR2… (peptide, as listed by the source): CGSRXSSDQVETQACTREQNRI

[49] = target: CGWY2ALSKQEG2RL2CNASMDAV2TSTSPTRC
[50] = target: CLSKQEG2RL2…22SK2C
[51] = target: SCGSR2…
Chain of SCGSR2… (peptide, as listed by the source): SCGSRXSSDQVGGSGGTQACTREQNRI

[52] = target: …2…; remark: listed apart in the source
[53] = target: E2LSCGSR2…2T2

## agonistic TNFR2 antibody MR2-1
[1]
  Raw luminescence data: 215
[2]
  Raw luminescence data: 223
[3]
  Raw luminescence data: 194
[4]
  Raw luminescence data: 194
[5]
  Raw luminescence data: 218
[6]
  Raw luminescence data: 224
[7]
  Raw luminescence data: 194
[8]
  Raw luminescence data: 196
[9]
  Raw luminescence data: 210
[10]
  Raw luminescence data: 197
[11]
  Raw luminescence data: 222 and 197
[12]
  Raw luminescence data: 205
[13]
  Raw luminescence data: 204
[14]
  Raw luminescence data: 198
[15]
  Raw luminescence data: 191
[16]
  Raw luminescence data: 200
[17]
  Raw luminescence data: 224
[18]
  Raw luminescence data: 201
[19]
  Raw luminescence data: 208
[20]
  Raw luminescence data: 194
[21]
  Raw luminescence data: 210
[22]
  Raw luminescence data: 206
[23]
  Raw luminescence data: 207 and 192
[24]
  Raw luminescence data: 224
[25]
  Raw luminescence data: 222
[26]
  Raw luminescence data: 206
[27]
  Raw luminescence data: 198
[28]
  Raw luminescence data: 220
[29]
  Raw luminescence data: 206
[30]
  Raw luminescence data: 209
[31]
  Raw luminescence data: 213
[32]
  Raw luminescence data: 192
[33]
  Raw luminescence data: 192
[34]
  Raw luminescence data: 223
[35]
  Raw luminescence data: 208
[36]
  Raw luminescence data: 203 and 196
[37]
  Raw luminescence data: 197
[38]
  Raw luminescence data: 151
[39]
  Raw luminescence data: 151
[40]
  Raw luminescence data: 155
[41]
  Raw luminescence data: 154
[42]
  Raw luminescence data: 156
[43]
  Raw luminescence data: 151
[44]
  Raw luminescence data: 150
[45]
  Raw luminescence data: 156 and 153
[46]
  Raw luminescence data: 154
[47]
  Raw luminescence data: 150
[48]
  Raw luminescence data: 153
[49]
  Raw luminescence data: 156
[50]
  Raw luminescence data: 156
[51]
  Raw luminescence data: 155
[52]
  Raw luminescence data: 155
[53]
  Raw luminescence data: 153
